Test [1] deals with HeLa cells stably expressing YFP-Parkin. In words: Parkin-dependent mitophagy, HCM quantification of mitochondrial DNA (mtDNA). The format is cell-based. As to conditions: wild type HeLa-YFP-Parkin cells; CCCP 10 μM or oligomycin A 5 μM and antimycin A 10 μM; 16 hours.
In test [2] the test system is Huh7 cells. Briefly: Pexophagy, Western blot of peroxisomal proteins PEX14 and PMP70. The format is cell-based. As to conditions: H2O2 0.4 mM, over a period of 6 hours. (Immunoblotting shows a protein as a band on a membrane.)
The target in test [3] is T1, VPS41 (endogenous) (UniProt P49754 1-854, limits assumed).
T1 construct: also called HOPS component VPS41
T1 sequence (looked up): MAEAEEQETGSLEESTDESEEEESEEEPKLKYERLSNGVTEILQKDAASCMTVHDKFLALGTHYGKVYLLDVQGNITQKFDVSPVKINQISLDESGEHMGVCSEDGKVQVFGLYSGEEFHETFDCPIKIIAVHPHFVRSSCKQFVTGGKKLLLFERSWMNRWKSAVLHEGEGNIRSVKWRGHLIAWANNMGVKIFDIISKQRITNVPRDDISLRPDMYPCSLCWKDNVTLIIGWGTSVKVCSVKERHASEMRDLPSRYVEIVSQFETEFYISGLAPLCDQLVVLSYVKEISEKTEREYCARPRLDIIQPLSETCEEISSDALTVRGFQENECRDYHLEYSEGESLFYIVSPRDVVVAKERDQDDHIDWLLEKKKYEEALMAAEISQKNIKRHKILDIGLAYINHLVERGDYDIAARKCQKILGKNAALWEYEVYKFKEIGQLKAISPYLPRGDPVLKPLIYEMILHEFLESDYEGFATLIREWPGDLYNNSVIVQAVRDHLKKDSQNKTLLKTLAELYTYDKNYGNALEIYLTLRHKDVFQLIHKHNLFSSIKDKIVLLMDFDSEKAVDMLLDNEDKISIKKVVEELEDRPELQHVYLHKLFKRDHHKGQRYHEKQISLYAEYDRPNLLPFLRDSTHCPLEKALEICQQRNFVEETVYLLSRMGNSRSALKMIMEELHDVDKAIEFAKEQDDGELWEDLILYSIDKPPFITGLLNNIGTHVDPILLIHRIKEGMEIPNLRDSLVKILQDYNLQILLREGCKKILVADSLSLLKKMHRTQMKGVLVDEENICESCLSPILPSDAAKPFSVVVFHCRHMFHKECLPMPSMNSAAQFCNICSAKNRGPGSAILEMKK
Briefly: endogenous Co-IP with mouse anti-Stx6 antibody, HeLa cells.

The target of test [4] is T2, VPS33A (endogenous, a component of the HOPS complex) (UniProt Q96AX1 1-596).
T2 sequence (looked up): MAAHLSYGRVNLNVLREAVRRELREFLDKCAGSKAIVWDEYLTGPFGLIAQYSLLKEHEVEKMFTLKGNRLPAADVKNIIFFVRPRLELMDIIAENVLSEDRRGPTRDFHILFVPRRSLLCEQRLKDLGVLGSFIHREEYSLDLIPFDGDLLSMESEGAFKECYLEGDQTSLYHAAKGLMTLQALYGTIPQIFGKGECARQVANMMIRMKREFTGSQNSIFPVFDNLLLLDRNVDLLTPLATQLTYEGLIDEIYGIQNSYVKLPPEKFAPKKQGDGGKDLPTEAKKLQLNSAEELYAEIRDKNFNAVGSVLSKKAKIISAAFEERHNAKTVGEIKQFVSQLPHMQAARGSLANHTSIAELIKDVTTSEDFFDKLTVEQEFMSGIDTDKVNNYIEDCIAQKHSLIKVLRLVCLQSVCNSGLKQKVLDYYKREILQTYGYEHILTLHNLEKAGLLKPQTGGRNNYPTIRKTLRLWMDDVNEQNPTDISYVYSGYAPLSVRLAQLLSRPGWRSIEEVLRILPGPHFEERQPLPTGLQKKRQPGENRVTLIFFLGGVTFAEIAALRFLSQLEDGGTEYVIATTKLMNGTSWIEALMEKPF
The test is described as above.

With `N#CC(C#N)=NNc1cccc(Cl)c1` [CCCP], the “mtDNA as a measure of cellular mitochondrial content” value in test [1] is listed as “major reduction”.
For `OO` [H2O2], in test [2], the “levels of peroxisomal constituents PEX14 and PMP70” value is recorded as “decrease”.

B1: Stx6 (endogenous, precipitated with mouse anti-Stx6 antibody from HeLa cells) (other, UniProt O43752 2-255, looked up)
chain: SMEDPFFVVKGEVQKAVNTAQGLFQRWTELLQDPSTATREEIDWTTNELRNNLRSIEWDLEDLDETISIVEANPRKFNLDATELSIRKAFITSTRQVVRDMKDQMSTSSVQALAERKNRQALLGDSGSQNWSTGTTDKYGRLDRELQRANSHFIEEQQAQQQLIVEQQDEQLELVSGSIGVLKNMSQRIGGELEEQAVMLEDFSHELESTQSRLDNVMKKLAKVSHMTSDRRQWCAIAILFAVLLVVLILFLVL
notes: also called syntaxin 6
With B1, the binding result is “binds” in test [3] and “no binding” in test [4].

B2: Vti1a (endogenous, in HeLa and U2OS cells) (other, UniProt Q96AJ9 1-217, looked up)
chain: MSSDFEGYEQDFAVLTAEITSKIARVPRLPPDEKKQMVANVEKQLEEAKELLEQMDLEVREIPPQSRGMYSNRMRSYKQEMGKLETDFKRSRIAYSDEVRNELLGDDGNSSENQRAHLLDNTERLERSSRRLEAGYQIAVETEQIGQEMLENLSHDREKIQRARERLRETDANLGKSSRILTGMLRRIIQNRILLVILGIIVVITILMAITFSVRRH
Consider B2, for which the binding result in test [4] is recorded as “no binding”.
